Results as given in patent US20220227887A1 (ONO PHARMACEUTICAL, published 2022).

T1: monomeric mouse LAG3-EC (strep-tagged) (mouse, UniProt Q61790 24-422, limits assumed)
T1 construct: It was immobilized on a streptavidin-coated biosensor; also called mouse LAG3 soluble protein; not shown: C-terminal strep tag
T1 sequence: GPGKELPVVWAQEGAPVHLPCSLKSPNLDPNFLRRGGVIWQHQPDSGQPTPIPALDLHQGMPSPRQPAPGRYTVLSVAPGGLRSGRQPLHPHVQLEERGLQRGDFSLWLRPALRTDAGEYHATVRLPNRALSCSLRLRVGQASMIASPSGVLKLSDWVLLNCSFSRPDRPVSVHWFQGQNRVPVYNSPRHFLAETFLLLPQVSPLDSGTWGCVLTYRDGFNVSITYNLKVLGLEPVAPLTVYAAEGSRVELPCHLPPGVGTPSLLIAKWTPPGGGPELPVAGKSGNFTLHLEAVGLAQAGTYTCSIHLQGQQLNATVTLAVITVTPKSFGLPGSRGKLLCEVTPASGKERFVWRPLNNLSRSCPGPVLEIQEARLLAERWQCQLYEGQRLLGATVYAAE

T2: mouse LAG3 (wild type), forcibly expressed on DO11.10 or B3Z cells (mouse, UniProt Q61790 24-521)
T2 construct: The whole entry is named; also called mLAG3; mLAG3 WT
T2 sequence: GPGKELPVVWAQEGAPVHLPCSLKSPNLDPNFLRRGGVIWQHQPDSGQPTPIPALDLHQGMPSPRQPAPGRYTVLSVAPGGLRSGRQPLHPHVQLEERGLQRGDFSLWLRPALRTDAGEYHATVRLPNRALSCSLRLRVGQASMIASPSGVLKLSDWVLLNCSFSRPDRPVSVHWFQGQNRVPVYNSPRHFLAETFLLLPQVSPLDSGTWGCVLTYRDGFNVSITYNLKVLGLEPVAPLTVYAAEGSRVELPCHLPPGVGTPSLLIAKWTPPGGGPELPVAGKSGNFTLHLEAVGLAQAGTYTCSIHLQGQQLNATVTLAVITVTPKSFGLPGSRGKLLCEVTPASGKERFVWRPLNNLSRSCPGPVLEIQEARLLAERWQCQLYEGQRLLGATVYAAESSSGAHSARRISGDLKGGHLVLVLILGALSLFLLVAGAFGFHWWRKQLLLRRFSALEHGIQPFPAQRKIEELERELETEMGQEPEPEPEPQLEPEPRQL


Tests used:
[1] = biological target: T1, monomeric mouse LAG3-EC (strep-tagged); assay: biolayer interferometry (BLItz), strep-tagged monomeric mouse LAG3-EC on the biosensor, antibody at 66.67, 200, 666.7 and 2000 nM
Method: (§1) The binding affinity of anti-mouse LAG3 antibodies (TKB58 and C9B7W) to a mouse LAG3 soluble protein was measured by biolayer interferometry. Briefly, cDNA fragments encoding D1 to D4 (LAG3-EC) of mouse LAG3 were amplified by PCR. A strep tag was added to the C-terminus of LAG3-EC. The chimeric cDNA was cloned into an expression vector modified from pEBMulti-Neo (Wako). Plat-E cells were transfected with the plasmid using Avalanche-Omni Transfection Reagent (EZ Biosystems) and the culture supernatant was collected after 48 hours. Monomeric mouse LAG3-EC (strep-tagged) was immobilized on a streptavidin-coated biosensor chip (Pall ForteBio) and binding of anti-mouse LAG3 antibodies at various concentrations was monitored with BLItz (Pall ForteBio). The chips were washed with PBS and the dissociation rates were analyzed. The binding rate constant (ka), the dissociation rate constant (kd), and the dissociation constant […] were calculated with BLItz Pro software. In TKB58, as compared with a case in C9B7W, ka was about 26 times faster and kd was 3.6 times slower.

[2] = biological target: T2, mouse LAG3 (wild type), forcibly …; assay: flow cytometry of DO11.10-mLAG-3 cells (CD3ε +, LAG-3 +) stained with culture supernatant, detected with anti-FLAG tag antibody
From the text: A nucleic acid encoding the heavy and light chain variable regions of an anti-mouse LAG3 antibody (TKB58) and an anti-mouse CD3s antibody (2C11) was synthesized, amplified by PCR, and was cloned into an expression plasmid vector produced by modifying pEBMulti-Neo (Wako) or pSecTag2/Hygro (Thermo Fisher Scientific), whereby expression plasmids of bispecific molecules 2C11xTKB58 (SEQ ID NO: 31) and TKB58x2C11 (SEQ ID NO: 32) recognizing mouse LAG3 and […] were produced. The expression plasmid was transfected into PlatE cells using Avalanche-Omni Transfection Reagent (EZ Biosystems), and the culture supernatant was collected after 48 hours. BW5147, DO11.10, and DO11.10-mLAG3 cells were stained using the culture supernatant.

[3] = biological target: T1, monomeric mouse LAG3-EC (strep-tagged); assay: biolayer interferometry (BLItz); reference C9B7W
Method: as §1

[4] = biological target: T2, mouse LAG3 (wild type), forcibly …; assay: flow cytometry of cells stained with culture supernatant
From the text: A nucleic acid encoding the heavy and light chain variable regions of an anti-mouse LAG3 antibody (TKB58) and an anti-mouse CD8 antibody (YTS169) was synthesized, amplified by PCR, and was cloned into an expression plasmid vector produced by modifying pEBMulti-Neo (Wako), whereby an expression plasmid of a bispecific molecule TKB58xYTS169 (SEQ ID NO: 33) recognizing mouse LAG3 and mouse CD8 was produced. The expression plasmid was transfected into PlatE cells using Avalanche-Omni Transfection Reagent (EZ Biosystems), and the culture supernatant was collected after 48 hours. DO11.10, DO11.10-mLAG3, B3Z, and B3Z-mLAG3 cells were stained using the culture supernatant.

Row | Kd [1] | koff [1] | kon [1] | Molecule | also measured
1 | 414 nM | 0.00392 s⁻¹ | 9480 M⁻¹ s⁻¹ | anti-mouse LAG3 antibody C9B7W | –
2 | – | – | – | bispecific molecule 2C11xTKB58 (bispecific antibody, Used as culture supernatant of transfected PlatE cells) DAAQPAREVQLVESGGGLVQPGKSLKLSCEASGFTFSGYGMHWVRQAPGRGLESVAYITSSSINIKYADAVKGRFTVSRDNAKNLLFLQMNILKSEDTAMYYCARFDWDKNYWGQGTMVTVSSGGGGSIVLTQSPATLSVTPGDSVSLSCRASQSISNNLHWYQQKSHESPRLLIKYASQSISGIPSRFSGSGSGTDFTLSINSVETEDFGMYFCQQSNSWPQYTFGGGTKLEIKGGGGSGGGGSGGGGSVQLQQSGAELVRPGALVKLSCKASGFNIKDYYMHWVKQRPEQGLEWIGWIDPENGNTIYDPKFQDKASLTADTSSNTAYLQLSSLTSEDTAVYYCAPERGYDYAMDYWGQGTSVTVSSGGGGSDIQMTQSPSSLPASLGDRVTINCQASQDISNYLNWYQQKPGKAPKLLIYYTNKLADGVPSRFSGSGSGRDSSFTISSLESEDIGSYYCQQYYNYPWTFGPGTKLEIKGGGGSDYKDDDDKNSAVDHHHHHH | binding result [2]: binds
3 | 4.39 nM | 0.0011 s⁻¹ | 251000 M⁻¹ s⁻¹ | anti-mouse LAG3 antibody TKB58 (antibody, V domains shown, Full-form antibody; also called TKB58 antibody; full-form anti-mouse LAG3 antibody) VH: VQLQQSGAELVRPGALVKLSCKASGFNIKDYYMHWVKQRPEQGLEWIGWIDPENGNTIYDPKFQDKASLTADTSSNTAYLQLSSLTSEDTAVYYCAPERGYDYAMDYWGQGTSVTVSS VL: IVLTQSPATLSVTPGDSVSLSCRASQSISNNLHWYQQKSHESPRLLIKYASQSISGIPSRFSGSGSGTDFTLSINSVETEDFGMYFCQQSNSWPQYTFGGGTKLEIK | fold faster ka against C9B7W [3]: ~26 times; fold lower KD against C9B7W [3]: 94 times; fold slower kd against C9B7W [3]: 3.6 times
4 | – | – | – | bispecific molecule TKB58xYTS169 (bispecific antibody, Used as culture supernatant of transfected PlatE cells) DAAQPARVQLQQSGAELVRPGALVKLSCKASGFNIKDYYMHWVKQRPEQGLEWIGWIDPENGNTIYDPKFQDKASLTADTSSNTAYLQLSSLTSEDTAVYYCAPERGYDYAMDYWGQGTSVTVSSGGGGSDIVLTQSPAMAMSPGERITISCRASESVSTRMHWYQQKPGQQPKLLIYGASNLESGVPARFSGSGSGTDFTLTIDPVEANDTATYFCQQSWYDPWTFGGGTKLELKGGGGSGGGGSGGGGSEVKLQESGGGLVQPGRSLKLSCAASGFNFNDYWMGWVRQAPGKGLEWIGEINKDSSTINYTPSLKDKFTISRDNAQNTLYLQMSKLGSEDTAIYYCARARGMMVLIIPHYFDYWGQGVMVTVSSTGGGGSIVLTQSPATLSVTPGDSVSLSCRASQSISNNLHWYQQKSHESPRLLIKYASQSISGIPSRFSGSGSGTDFTLSINSVETEDFGMYFCQQSNSWPQYTFGGGTKLEIKGGGGSDYKDDDDKNSAVDHHHHHH | binding result [4]: binds
